We go through five molecules from publication PMC6100724, “Proteome‐wide analysis of phospho‐regulated PDZ domain interactions” (Molecular Systems Biology, 2018).

B5: Scribble PDZ1 (His-tagged, aa 719-829) (domain or fragment)
chain: not shown
notes: human Scribble, PDZ1, aa 719-829, in pETM-11; Used for MST and ITC; removal of the His tag is told only for the NMR samples; also called Scribble PDZ1 wild type; source: E. coli BL21 Gold (DE3), purified (Ni2+ Sepharose), dialysed

Square brackets hold non-standard residues; d marks the D form. Ends that are not written are not given here. * marks the point of attachment. FITC = O=C1OC2(c3ccc(O)cc3Oc3cc(O)ccc32)c2ccc(NC(=S)*)cc21; pS = N[C@@H](COP(=O)(O)O)C(=O)O

Holding throughout (details): both partners purified
Experiment [1] has as its target T1, Scribble PDZ1 (human, aa 719-829) (human, UniProt Q14160 719-829).
T1 construct: Scribble, human, PDZ1, aa 719-829 in pETM-11; The His tag was cleaved only for the NMR samples; nothing is said of cleavage for MST and ITC; also called Scribble PDZ1 wild type; source: E. coli BL21 Gold (DE3), purified (Ni2+ Sepharose)
Nature of the experiment: ITC; iTC200, 25°C, 20 mM HEPES pH 7.4; protein 50-100 µM in the cell, 0.64-3 mM peptide in the syringe; single-site fit, stoichiometry fixed to 0.8-1.1; triplicate. Background: Isothermal titration calorimetry measures the heat released or taken up as one component is titrated into another.

The next experiment addresses T2, Scribble PDZ1 A743R (human, UniProt Q14160 719-829, A743R).
T2 construct: Scribble, human, PDZ1, aa 719-829 in pETM-11, with A743R; the text describes A743R only in the R762A background; source: E. coli BL21 Gold (DE3), purified (Ni2+ Sepharose)
The description is as above.

A further experiment addresses T3, Scribble PDZ1 K746A (human, UniProt Q14160 719-829, K746A).
T3 construct: Scribble, human, PDZ1, aa 719-829 in pETM-11, with K746A; source: E. coli BL21 Gold (DE3), purified (Ni2+ Sepharose)
Described as above.

Experiment [2] has as its target T4, Scribble PDZ1 R762A (human, UniProt Q14160 719-829, R762A).
T4 construct: Scribble, human, PDZ1, aa 719-829 in pETM-11, with R762A; source: E. coli BL21 Gold (DE3), purified (Ni2+ Sepharose)
The description is as above.

The next experiment has as its target T5, Scribble PDZ1 R801A (human, UniProt Q14160 719-829, R801A).
T5 construct: Scribble, human, PDZ1, aa 719-829 in pETM-11, with R801A (text, methods and primers); source: E. coli BL21 Gold (DE3), purified (Ni2+ Sepharose)
The experiment is described as above.

For experiment [3], the target named is T6, Scribble PDZ1 R762A/A743R (human, UniProt Q14160 719-829, A743R | R762A).
T6 construct: Scribble, human, PDZ1, aa 719-829 in pETM-11, with R762A and A743R; also called R762A/A743R mutant; source: E. coli BL21 Gold (DE3), purified (Ni2+ Sepharose)
T6 sequence (Q14160 719-829 A743R/R762A): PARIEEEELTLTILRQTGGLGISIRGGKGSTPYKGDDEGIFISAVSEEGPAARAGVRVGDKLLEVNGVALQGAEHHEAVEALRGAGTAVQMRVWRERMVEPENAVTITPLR
The experiment is described as above.

Experiment [4] deals with T7, FITC-RLTpSTRL (RPS6KA2 peptide, phosphorylated at p-3) (human).
T7 construct: C-terminal peptide of human RPS6KA2; source: synthetic peptide, bought: GeneCust
T7 peptide: {FITC}-RLT[pS]TRL
The experiment in a line: MST; FITC-labeled peptide fixed at 25-50 nM, untagged SHANK1 PDZ in a dilution series; PBS, 10 mM MgCl2, 0.05% Tween-20; n = 3.

In experiment [5] the target is T8, FITC-RLTETRL (RPS6KA2 peptide, phosphomimetic at p-3) (human, S730E (stands in the printed letters)).
T8 construct: also called phosphomimetic RPS6KA2; source: synthetic peptide, bought: GeneCust
T8 peptide: {FITC}-RLTETRL
Nature of the experiment: MST; FITC-labeled peptide fixed at 25-50 nM, protein (Scribble PDZ1 or DLG1 PDZ2) in a 1:1 dilution series; 50 mM Tris-HCl pH 7.4, 0.1% Tween-20; thermophoresis and T-Jump signal; n = 3.

The target in experiment [6] is T9, FITC-KREFIESNV (TANC1 peptide, phosphomimetic at p-6) (human, Ser to Glu at p-6 (stands in the printed letters)).
T9 construct: also called phosphomimetic TANC1; source: synthetic peptide, bought: GeneCust
T9 peptide: {FITC}-KREFIESNV
Described as above.

Experiment [7] addresses T10, FITC-KRpSFIESNV (TANC1 peptide, phosphorylated at p-6) (human).
T10 construct: C-terminal peptide of human TANC1; also called TANC1 phosphopeptide; source: synthetic peptide, bought: GeneCust
T10 peptide: {FITC}-KR[pS]FIESNV
Described as above.

In experiment [8] the target is B5. The experiment in a line: ITC; iTC200, 25°C, 20 mM HEPES pH 7.4; protein 50-100 μM in the cell, peptide 0.64-3 mM in the syringe; single-site fit, stoichiometry fixed to 0.8-1.1; n = 3.
In experiment [9] the target is T11, Scribble PDZ1 R762A (human, UniProt Q14160 719-829, R762A).
T11 construct: human Scribble, PDZ1, aa 719-829, in pETM-11, point mutant; Used for ITC; also called mutational background; source: E. coli BL21 Gold (DE3), purified (Ni2+ Sepharose), dialysed
The experiment is described as above.

The target of experiment [10] is T12, Scribble PDZ1 R762A/A743R (human, UniProt Q14160 719-829, R762A | A743R).
T12 construct: human Scribble, PDZ1, aa 719-829, A743R introduced in the background of R762A; also called R762A/A743R mutant; source: E. coli BL21 Gold (DE3), purified (Ni2+ Sepharose), dialysed
T12 sequence (Q14160 719-829 A743R/R762A): as above
The description is as above.

Experiment [11] has as its target T13, FITC-HTNETpSL (MCC peptide, phosphorylated at p-1) (human).
T13 construct: C-terminal peptide of human MCC; also called pMCC; source: synthetic peptide, bought: GeneCust
T13 peptide: {FITC}-HTNET[pS]L
Nature of the experiment: MST; FITC-labeled peptide fixed at 25-50 nM, protein (Scribble PDZ1 or DLG1 PDZ2) in a 1:1 dilution series; 50 mM Tris-HCl pH 7.4, 0.1% Tween-20; thermophoresis and T-Jump signal; n = 3.

Experiment [12] deals with T7, FITC-RLTpSTRL (RPS6KA2 peptide, …). The experiment is described as above.

T2 sequence (Q14160 719-829 A743R): as the sequence (Q14160 719-829 A743R/R762A) above, with A44R counted along it
T1 sequence (Q14160 719-829): as the sequence (Q14160 719-829 A743R/R762A) above, with R25A, A44R counted along it
T3 sequence (Q14160 719-829 K746A): as the sequence (Q14160 719-829 A743R/R762A) above, with R25A, K28A, A44R counted along it
T5 sequence (Q14160 719-829 R801A): as the sequence (Q14160 719-829 A743R/R762A) above, with R25A, A44R, R83A counted along it

B1: RPS6KA2 peptide MKRLTpSTRL (p-3 phosphorylated) (peptide)
peptide: MKRLT[pS]TRL
notes: C-terminal nine residues of RPS6KA2, human; also called pRPS6KA2; phospho-RPS6KA2; source: synthetic peptide, bought: GeneCust
Broadly, the Kd is the constant that tells how readily two partners part at equilibrium. For the molecule B1, the Kd is 4 µM in experiment [1]; 2.8 µM with Scribble PDZ1 A743R; 10 µM in the experiment with Scribble PDZ1 K746A; 25 µM in the experiment with Scribble PDZ1 R762A [2]; 17 µM with Scribble PDZ1 R801A; 15 µM in experiment [3].

B2: SHANK1 PDZ (aa 652-761, His-GST tag removed) (domain or fragment, human, UniProt Q9Y566 652-761, looked up)
chain: GPGSDYIIKEKTVLLQKKDSEGFGFVLRGAKAQTPIEEFTPTPAFPALQYLESVDEGGVAWRAGLRMGDFLIEVNGQNVVKVGHRQVVNMIRQGGNTLMVKVVMVTRHPD
notes: human Shank1, PDZ, aa 652-761, in pETM-33; also called untagged SHANK1 PDZ; source: E. coli BL21 Gold (DE3), purified (Ni2+ Sepharose), tag removed with HRV3C protease
For the molecule B2, the “fold lower affinity than for the unphosphorylated peptide” value (“fold lower affinity than” below) in experiment [4] came out at 3.6 fold.

B3: DLG1 PDZ2 (His-tagged, aa 311-407) (domain or fragment, human, UniProt Q12959 311-407, looked up)
chain: KPVSEKIMEIKLIKGPKGLGFSIAGGVGNQHIPGDNSIYVTKIIEGGAAHKDGKLQIGDKLLAVNNVCLEEVTHEEAVTALKNTSDFVYLKVAKPTS
notes: human DLG1, PDZ2, aa 311-407, in a modified pRSET vector; also called DLG PDZ2; source: E. coli BL21 Gold (DE3), purified (Ni2+ Sepharose), dialysed
Consider B3, for which the “fold higher affinity than for the unphosphorylated peptide” value (from here on “fold higher affinity than”) in experiment [5] worked out at 1.3 fold. Moreover, the “fold lower affinity than” value in experiment [6] was determined as 2.4 fold; in experiment [7], 2.9 fold.

B4: MKRLTpSTRL (RPS6KA2 peptide, phosphorylated at p-3, unlabelled) (peptide)
peptide: MKRLT[pS]TRL
notes: C-terminal peptide of human RPS6KA2; also called phospho-RPS6KA2; pRPS6KA2; source: synthetic peptide, bought: GeneCust
B4: the “fold higher affinity than” value in experiment [8] was 5 fold. Moreover, the “fold weaker affinity than the wild type” value in the experiment with Scribble PDZ1 R762A [9] worked out at 6 fold. Besides, the binding result in experiment [10] was “binds”.
For the molecule B5, the “fold higher affinity than” value was determined as 3 fold in [11] and 5 fold in [12]. The “fold lower affinity than” value in experiment [7] worked out at 2 fold.
